Measurements taken from patent US20010000783A1, “Treatment of interstitial cystitis” (priority 1998, published 2001).

Experiments:
Assay type in all cases: cell-based
[1] = tested on: primary human bladder epithelial cells grown from normal bladder tissue; assay: Inhibition of HPLC-purified APF activity by rhHB-EGF, 3H-thymidine incorporation, cells from normal bladder tissue; settings: 10 pg/10^7 cells HPLC-purified APF, 48 hours; cells from controls; FIG. 10A
Method: (§1) Primary normal adult human bladder epithelial (HBE) cells were cultured by the method described above in Part II. On the third day of incubation, cell medium was replaced by serum free MEM containing the less than 3 kDa fraction (i.e, containing the APF) of urine specimens from IC patients or controls (i.e., that part containing the anti-proliferative factor or APF described in related application Ser. No. 08/944,202), or HPLC-purified APF or its mock control along with varying concentrations of recombinant HB-EGF (0-100 ng/ml), EGF (0-100 ng/ml), or IGF-1 (0-300 pg/ml) [all from R & D Systems, Minneapolis, Minn.] diluted in phosphate buffered saline (1:1:1). Urine was prepared by the method described above in Part II and HPLC purified APF was prepared as described above. Following an additional 48 hours of incubation at 37 degrees C. in a 5% CO2 atmosphere, cell proliferation was assessed by ^3H-thymidine incorporation according to the published methods^38.
(§2) Cell proliferation was determined 48 hours later by 3H-thymidine incorporation. Bar values indicate the mean of triplicate determinations. Vertical lines indicate the standard of error of the mean.

[2] = tested on: primary human bladder epithelial cells grown from IC patient biopsy specimens; assay: Inhibition of HPLC-purified APF activity by rhHB-EGF, 3H-thymidine incorporation, cells from IC patient biopsies; settings: 10 pg/10^7 cells HPLC-purified APF, 48 hours; cells from IC patients; FIG. 10B
Method: as §1, §2

[3] = tested on: Normal human bladder epithelial cells; assay: Inhibition of APF activity by recombinant growth factors, low molecular weight urine fractions, 3H-thymidine incorporation
Method: as §1
Normal human bladder epithelial cells were exposed simultaneously to recombinant human growth factors (HB-EGF, EGF, or IGF1) and low molecular weight fractions from IC patients or control urine specimens. Cell proliferation was determined 48 hours later by 3H-thymidine incorporation (FIGS. 6A-6C). Bar values indicate the mean of 5-8 determinations. Vertical lines indicate the standard error of the mean.

B1: heparin-binding epidermal growth factor-like growth factor (protein, UniProt Q99075 63-148, looked up)
Heparin-binding EGF-like …: DLQEADLDLLRVTLSSKPQALATPNKEEHGKRKKKGKGLGKKRDPCLRKYKDFCIHGECKYVKELRAPSCICHPGYHGERCHGLSL
In the case of B1, the “inhibition of APF's antiproliferative effects” value [1] is reported as “can inhibit APF's antiproliferative effects”, the “inhibition of APF's antiproliferative effects” value [2] is reported as “can inhibit APF's antiproliferative effects” and the “proliferation of cells exposed to urine from IC patients” value ([3]; high concentrations of rhHB-EGF, compared with cells exposed to control urines, FIG. 6A) is reported as “stimulated, more than that of cells exposed to control urines”. The “inhibition of APF antiproliferative activity” value ([3]; simultaneous exposure to recombinant growth factor and <3 kDa urine fraction, 48 hours, HB-EGF 0-100 ng/ml (effect evident at 10 ng/ml), EGF 0-100 ng/ml, IGF-1 0-300 pg/ml, FIGS. 6A-6C) was “resulted in inhibition of APF antiproliferative activity”.
